B1: IKZF1 (parent)
chain: YHSQDRYEFSSHITRGEHRFHMS

Variants of: B1
Test: protein stability index of a GFP-peptide fusion (GPS, HEK-293T) (PSI 1-6); higher = more stable
Conditions: c terminus: native
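Further: lentivirally expressed fusions sorted by FACS into six bins by GFP to DsRed ratio, PSI derived from sequencing read proportions per bin multiplied by bin number.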

Variant | protein stability index
YHSQDEYEFSSHITRGEHRFHMS | 2.29
YHSQDFYEFSSHITRGEHRFHMS | 3.44
YHSQDGYEFSSHITRGEHRFHMS | 2.22
YHSQDHYEFSSHITRGEHRFHMS | 1.8
YHSQDIYEFSSHITRGEHRFHMS | 2.25
YHSQDKYEFSSHITRGEHRFHMS | 2.64
YHSQDLYEFSSHITRGEHRFHMS | 2.98
YHSQDMYEFSSHITRGEHRFHMS | 2.65
YHSQDNYEFSSHITRGEHRFHMS | 2.44
YHSQDPYEFSSHITRGEHRFHMS | 2.23
YHSQDQYEFSSHITRGEHRFHMS | 1.9
YHSQDSYEFSSHITRGEHRFHMS | 1.87
YHSQDTYEFSSHITRGEHRFHMS | 1.8
YHSQDVYEFSSHITRGEHRFHMS | 2.07
YHSQDWYEFSSHITRGEHRFHMS | 2.83
YHSQDYYEFSSHITRGEHRFHMS | 2.24
YHSQDRAEFSSHITRGEHRFHMS | 1.89
YHSQDRCEFSSHITRGEHRFHMS | 1.91
YHSQDRDEFSSHITRGEHRFHMS | 2.26
YHSQDREEFSSHITRGEHRFHMS | 2.18
YHSQDRFEFSSHITRGEHRFHMS | 2.78
YHSQDRGEFSSHITRGEHRFHMS | 2.44
YHSQDRHEFSSHITRGEHRFHMS | 1.49
YHSQDRIEFSSHITRGEHRFHMS | 2.27
YHSQDRKEFSSHITRGEHRFHMS | 1.51

Variant | protein stability index
YHSQDRLEFSSHITRGEHRFHMS | 2.33
YHSQDRMEFSSHITRGEHRFHMS | 1.95
YHSQDRNEFSSHITRGEHRFHMS | 1.72
YHSQDRPEFSSHITRGEHRFHMS | 1.78
YHSQDRQEFSSHITRGEHRFHMS | 2.04
YHSQDRREFSSHITRGEHRFHMS | 2.08
YHSQDRSEFSSHITRGEHRFHMS | 2.2
YHSQDRTEFSSHITRGEHRFHMS | 1.85
YHSQDRVEFSSHITRGEHRFHMS | 2
YHSQDRWEFSSHITRGEHRFHMS | 2.46
YHSQDRYAFSSHITRGEHRFHMS | 2.79
YHSQDRYCFSSHITRGEHRFHMS | 2.5
YHSQDRYDFSSHITRGEHRFHMS | 2.45
YHSQDRYFFSSHITRGEHRFHMS | 3.7
YHSQDRYGFSSHITRGEHRFHMS | 1.72
YHSQDRYHFSSHITRGEHRFHMS | 4.13
YHSQDRYIFSSHITRGEHRFHMS | 2.78
YHSQDRYKFSSHITRGEHRFHMS | 3.34
YHSQDRYLFSSHITRGEHRFHMS | 4.01
YHSQDRYMFSSHITRGEHRFHMS | 2.11
YHSQDRYNFSSHITRGEHRFHMS | 3.99
YHSQDRYPFSSHITRGEHRFHMS | 3.38
YHSQDRYQFSSHITRGEHRFHMS | 2.17
YHSQDRYRFSSHITRGEHRFHMS | 1.8
YHSQDRYSFSSHITRGEHRFHMS | 3.3

Variant | protein stability index
YHSQDRYTFSSHITRGEHRFHMS | 3.44
YHSQDRYVFSSHITRGEHRFHMS | 1.98
YHSQDRYWFSSHITRGEHRFHMS | 2.44
YHSQDRYYFSSHITRGEHRFHMS | 3.85
YHSQDRYEASSHITRGEHRFHMS | 2.02
YHSQDRYECSSHITRGEHRFHMS | 2.54
YHSQDRYEDSSHITRGEHRFHMS | 1.98
YHSQDRYEESSHITRGEHRFHMS | 1.97
YHSQDRYEGSSHITRGEHRFHMS | 1.97
YHSQDRYEHSSHITRGEHRFHMS | 2.04
YHSQDRYEISSHITRGEHRFHMS | 2.03
YHSQDRYEKSSHITRGEHRFHMS | 2.05
YHSQDRYELSSHITRGEHRFHMS | 1.96
YHSQDRYEMSSHITRGEHRFHMS | 2.44
YHSQDRYENSSHITRGEHRFHMS | 1.8
YHSQDRYEPSSHITRGEHRFHMS | 1.73
YHSQDRYEQSSHITRGEHRFHMS | 1.17
YHSQDRYERSSHITRGEHRFHMS | 1.67
YHSQDRYESSSHITRGEHRFHMS | 3.12
YHSQDRYETSSHITRGEHRFHMS | 1.49
YHSQDRYEVSSHITRGEHRFHMS | 2.65
YHSQDRYEWSSHITRGEHRFHMS | 3.1
YHSQDRYEYSSHITRGEHRFHMS | 1.95
YHSQDRYEFASHITRGEHRFHMS | 1.4
YHSQDRYEFCSHITRGEHRFHMS | 1.56

Variant | protein stability index
YHSQDRYEFDSHITRGEHRFHMS | 1.74
YHSQDRYEFESHITRGEHRFHMS | 1.74
YHSQDRYEFFSHITRGEHRFHMS | 2.1
YHSQDRYEFGSHITRGEHRFHMS | 1.92
YHSQDRYEFHSHITRGEHRFHMS | 1.84
YHSQDRYEFISHITRGEHRFHMS | 1.92
YHSQDRYEFKSHITRGEHRFHMS | 1.27
YHSQDRYEFLSHITRGEHRFHMS | 1.66
YHSQDRYEFMSHITRGEHRFHMS | 1.6
YHSQDRYEFNSHITRGEHRFHMS | 1.72
YHSQDRYEFPSHITRGEHRFHMS | 2.08
YHSQDRYEFQSHITRGEHRFHMS | 2.08
YHSQDRYEFRSHITRGEHRFHMS | 1.9
YHSQDRYEFTSHITRGEHRFHMS | 1.62
YHSQDRYEFVSHITRGEHRFHMS | 1.95
YHSQDRYEFWSHITRGEHRFHMS | 3.17
YHSQDRYEFYSHITRGEHRFHMS | 2
YHSQDRYEFSAHITRGEHRFHMS | 2.36
YHSQDRYEFSCHITRGEHRFHMS | 1.68
YHSQDRYEFSDHITRGEHRFHMS | 2.01
YHSQDRYEFSEHITRGEHRFHMS | 2.15
YHSQDRYEFSFHITRGEHRFHMS | 2.9

Reference: the supplement of paper PMC10567573
